From paper PMC10527052, “X-ray Crystallographic Study of Preferred Spacing by the NF-κB p50 Homodimer on κB DNA” (Biomolecules, 2023)

Legend:
[1] = biological target: the molecule itself; experiment: crystal structure; p50 RHR homodimer co-crystallised with κB DNA (IL-6 17-mer, 2.80 Å; NGAL 10-mer, 2.80 Å; Test 16-mer, 3.0 Å); hanging or sitting drop vapor diffusion; one complex per asymmetric unit
NF-kB p50 RHR homodimer [2] = biological target: T1, NF-kB p50 RHR homodimer (mouse (murine), UniProt P25799 39-363); experiment: X-ray crystallography; 11-bp spacing, 2.80 A; Co-crystal structures only; crystallization conditions not in the material; protein stock in 25 mM Tris-HCl pH 7.4, 50 mM NaCl, 1 mM DTT; conditions: protein: recombinant; chain copies: 2; blunt
NF-kB p50 RHR homodimer [3] = biological target: T1, NF-kB p50 RHR homodimer; experiment: X-ray crystallography; 12-bp spacing, 2.80 A; 2:1 DNA:p50 dimer; second duplex almost unbound, contributes terminal G; Co-crystal structures only; crystallization conditions not in the material; protein stock in 25 mM Tris-HCl pH 7.4, 50 mM NaCl, 1 mM DTT; conditions: protein: recombinant; chain copies: 2; blunt; 2 duplexes per p50 dimer, stacked end-to-end
NF-kB p50 RHR homodimer [4] = biological target: T1, NF-kB p50 RHR homodimer; experiment: X-ray crystallography; 11-bp spacing, 3.0 A; Co-crystal structures only; crystallization conditions not in the material; protein stock in 25 mM Tris-HCl pH 7.4, 50 mM NaCl, 1 mM DTT; conditions: protein: recombinant; chain copies: 2

B1: murine NF-κB p50 subunit Rel homology region (amino acid residues 39–363) (domain or fragment, UniProt P25799 39-363, looked up)
chain: GPYLQILEQPKQRGFRFRYVCEGPSHGGLPGASSEKNKKSYPQVKICNYVGPAKVIVQLVTNGKNIHLHAHSLVGKHCEDGVCTVTAGPKDMVVGFANLGILHVTKKKVFETLEARMTEACIRGYNPGLLVHSDLAYLQAEGGGDRQLTDREKEIIRQAAVQQTKEMDLSVVRLMFTAFLPDSTGSFTRRLEPVVSDAIYDSKAPNASNLKIVRMDRTAGCVTGGEEIYLLCDKVQKDDIQIRFYEEEENGGVWEGFGDFSPTDVHRQFAIVFKTPKYKDVNITKPASVFVQLRRKSDLETSEPKPFLYYPEIKDKEEVQRKRQK
notes: 351-363 disordered in the crystals; murine amino acid numbering; also called p50 RHR; NF-κB p50 homodimer; source: E. coli BL21 (DE3), pET11a, purified (SP Sepharose, Superdex 75 size exclusion)
stoichiometry N [1]: 2

B2: IL-6 kB DNA 17-mer (dsDNA)
DNA 1: TGTGGGATTTTCCCATG
DNA 2: CATGGGAAAATCCCACA
binding result (NF-kB p50 RHR homodimer [2]): binds

B3: NGAL kB DNA 10-mer (dsDNA)
DNA 1: GGGAATGTCC
DNA 2: GGACATTCCC
binding result (NF-kB p50 RHR homodimer [3]): binds

B4: Test kB-like DNA 16-mer (dsDNA)
DNA 1: TCAGGGGAATTCCCCTC
DNA 2: AGAGGGGAATTCCCCTG
binding result (NF-kB p50 RHR homodimer [4]): binds
